Results: publication PMC6921966 (Frontiers in Immunology, 2019)
Where a chain is given by its changes, count along the chain named.

Assays:
[1] = molecular target: T1, mouse FcγRIV on transfected HEK293T cells (Mus musculus, UniProt A0A0B4J1G0); assay: flow cytometry on cells; conditions: one partner purified
T1 construct: also called FcγRIV transfected cells

human H3N2 M2e peptide [2] = molecular target: T2, human H3N2 M2e peptide (Influenza A virus, human H3N2 consensus); assay: ELISA; conditions: both partners purified
T2 chain: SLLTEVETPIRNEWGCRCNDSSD

[3] = molecular target: M2 of A/Puerto Rico/8/1934 (H1N1) on infected cells (Influenza A virus A/Puerto Rico/8/1934 …, UniProt P06821); assay: flow cytometry on cells; conditions: one partner purified
Sequence of M2 of A/Puerto Rico/8/1934 (H1N1) on infected cells (P06821 whole entry): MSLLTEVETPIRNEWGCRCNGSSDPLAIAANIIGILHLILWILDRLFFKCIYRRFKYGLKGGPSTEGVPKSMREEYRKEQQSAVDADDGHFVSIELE

[4] = molecular target: M2 of A/Udorn/307/1972 (H3N2) on infected cells (influenza A virus A/Udorn/307/1972 …, UniProt P0DOF5); assay: flow cytometry on cells; conditions: one partner purified
Sequence of M2 of A/Udorn/307/1972 (H3N2) on infected cells (P0DOF5 whole entry): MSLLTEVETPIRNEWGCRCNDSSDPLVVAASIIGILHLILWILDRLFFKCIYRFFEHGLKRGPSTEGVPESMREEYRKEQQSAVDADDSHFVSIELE

[5] = molecular target: M2 of A/Swine/Ontario/42729A/2001 (H3N3) on infected cells (Influenza A virus …, UniProt Q64HP7, strain); assay: flow cytometry on cells; conditions: one partner purified
human H3N2 M2e peptide [6] = molecular target: T2, human H3N2 M2e peptide; assay: ITC; […] (300 μM) […] (30 μM) in PBS; […]; conditions: both partners purified

T1 sequence (A0A0B4J1G0 21-249): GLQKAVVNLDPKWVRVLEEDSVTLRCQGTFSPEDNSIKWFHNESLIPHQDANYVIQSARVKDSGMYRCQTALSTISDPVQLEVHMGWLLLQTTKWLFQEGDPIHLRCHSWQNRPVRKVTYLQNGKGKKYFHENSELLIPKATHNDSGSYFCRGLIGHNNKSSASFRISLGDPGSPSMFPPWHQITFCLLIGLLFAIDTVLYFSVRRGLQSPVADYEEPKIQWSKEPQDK

B1: FcγRIV-VHH-7m (VHH)
VHH: QVQLQESGGGLVQAGGSLRLSCAASGFTVDDYSIGWFRQAPGKEREGVSCISIRDGSTGYTDPVKGRFTISSDNAKNMVYLQMNMLKPEDTAVYYCAGDIYCSNDDVGVGPYDYWGQGTQVTVSS
notes: also called FcgRIV-VHH-7m; FcγRIV-specific VHH
B1: binds [1].

B2: M2e-VHH-10m (VHH)
VHH: QVQLQESGGGLVQAGESLSLSCAASGLAFDDYVIGWYRQAPGKGREGLSCMRLSNGAIMYGPSVKGRFTMSSDNAKSTFFLQMTRLIPEDTAVYYCGAEKHDVNGCGFDVAYWGQGTQVTVSS
notes: not shown: His6, C-terminal, kept
B2: binds (human H3N2 M2e peptide [2]).

B3: M2e-VHH-23m (VHH)
VHH: QVQLQESGGGLVQTGGSLRLSCAFSGFTSDDYVIGWFRQAPGKGRQGVSCIRLSGGGTIYADSAKGRFTVSADNAKKTVYLQMTRLKPEDTAVYYCGAERYNVEGCGYDVAYWGKGTQVTVSS
notes: also called M2e-VHH-m23; M1e- VHH-23m; not shown: His6, C-terminal, kept
With B3 the Kd [3] was 13.6 nM, the binding result [4] was “binds” and the binding result [5] was “no binding (tested: 20 μg/ml)”. For the same binder, the Kd (human H3N2 M2e peptide [6]) was 730 nM and the “stoichiometry N” value (human H3N2 M2e peptide [6]) was 1.

B4: M2e-VHH-66m (VHH)
VHH: B3 VHH with T28I, V70I, R85S, Y101H
notes: as for B2
B4: binds (human H3N2 M2e peptide [2]).
